Measured values taken from patent publication US20180148504A1 (EISAI R AND D MANAGEMENT, published 2018).

Experiments:
[1] = biological target: T1, human folate receptor beta (FRβ), recombinant, C-terminal 6xHis (human, UniProt P14207 17-230, limits assumed); test: direct ELISA, plates coated with 1 µg/mL FR isoform, dilution series of culture supernatant
T1 construct: Transiently expressed in 293F cells and purified; coated on ELISA plates

[2] = biological target: T2, human folate receptor gamma (FRγ), recombinant, C-terminal 6xHis (human, UniProt P41439 23-245, limits assumed); test: as above
T2 construct: Transiently expressed in 293F cells and purified; coated on ELISA plates
T2 sequence (P41439 other isoform, or with tags, fused parts or gaps limits assumed): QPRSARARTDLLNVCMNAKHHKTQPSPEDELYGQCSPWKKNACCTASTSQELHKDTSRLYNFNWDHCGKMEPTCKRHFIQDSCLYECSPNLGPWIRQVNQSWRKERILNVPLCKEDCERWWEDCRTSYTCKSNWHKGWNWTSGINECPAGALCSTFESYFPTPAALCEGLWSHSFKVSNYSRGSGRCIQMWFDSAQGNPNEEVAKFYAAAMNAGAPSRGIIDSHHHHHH

[3] = biological target: T3, recombinant purified FRα (ECL assay calibrator) (human, UniProt P15328 25-234); test: ECL sandwich on FRα, signal to background; capture 26A9.C4; binder = detection Ab
T3 construct: Calibrator of the ECL sandwich assays; also called FRα calibrator; FRα standard
T3 sequence (P15328 25-234 limits assumed): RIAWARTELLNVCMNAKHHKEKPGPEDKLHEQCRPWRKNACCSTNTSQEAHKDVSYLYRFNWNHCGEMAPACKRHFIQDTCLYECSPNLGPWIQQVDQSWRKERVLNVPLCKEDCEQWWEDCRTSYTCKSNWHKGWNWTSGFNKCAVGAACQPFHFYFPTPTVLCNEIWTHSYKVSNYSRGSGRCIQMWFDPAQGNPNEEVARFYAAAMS

[4] = biological target: T3, recombinant purified FRα (ECL assay …); test: ECL sandwich on FRα, signal to background; capture 1A8.G11.E7; binder = detection Ab
[5] = biological target: T3, recombinant purified FRα (ECL assay …); test: ECL sandwich on FRα, signal to background; capture 24H8.F3; binder = detection Ab
[6] = biological target: T3, recombinant purified FRα (ECL assay …); test: ECL sandwich on FRα, signal to background; capture 30G6.G6.G4.E9; binder = detection Ab
[7] = biological target: T3, recombinant purified FRα (ECL assay …); test: ECL sandwich, FRα calibrator; capture 2F11.F8; binder = detection Ab
[8] = biological target: T3, recombinant purified FRα (ECL assay …); test: ECL sandwich, FRα calibrator; capture 19D4.B7; binder = detection Ab
[9] = biological target: T3, recombinant purified FRα (ECL assay …); test: ECL sandwich on FRα, signal to background; capture 2F11.F8; binder = detection Ab
[10] = biological target: T3, recombinant purified FRα (ECL assay …); test: ECL sandwich on FRα, signal to background; capture 28H12.G9; binder = detection Ab
[11] = biological target: T3, recombinant purified FRα (ECL assay …); test: ECL sandwich, FRα calibrator; capture 19D2.G9; binder = detection Ab
[12] = biological target: T3, recombinant purified FRα (ECL assay …); test: ECL sandwich on FRα, signal to background; capture 5C12.H8; binder = detection Ab
[13] = biological target: T3, recombinant purified FRα (ECL assay …); test: ECL sandwich, FRα calibrator; capture 6A2.G7; binder = detection Ab
[14] = biological target: T3, recombinant purified FRα (ECL assay …); test: ECL sandwich, FRα calibrator; capture 28H12.G9; binder = detection Ab
[15] = biological target: T3, recombinant purified FRα (ECL assay …); test: ECL sandwich, FRα calibrator; capture 1D2.G8.G10; binder = detection Ab
[16] = biological target: T3, recombinant purified FRα (ECL assay …); test: ECL sandwich on FRα, signal to background; capture 19D4.B7; binder = detection Ab
[17] = biological target: T3, recombinant purified FRα (ECL assay …); test: ECL sandwich, FRα calibrator; capture 26A9.C4; binder = detection Ab
[18] = biological target: T3, recombinant purified FRα (ECL assay …); test: ECL sandwich on FRα, signal to background; capture 24H8.D3; binder = detection Ab
[19] = biological target: T3, recombinant purified FRα (ECL assay …); test: ECL sandwich, FRα calibrator; capture 1A8.G11.E7; binder = detection Ab
[20] = biological target: T3, recombinant purified FRα (ECL assay …); test: ECL sandwich, FRα calibrator; capture 24H8.D3; binder = detection Ab
[21] = biological target: T3, recombinant purified FRα (ECL assay …); test: ECL sandwich on FRα, signal to background; capture 6A2.G7; binder = detection Ab
[22] = biological target: T3, recombinant purified FRα (ECL assay …); test: ECL sandwich, FRα calibrator; capture 30G6.G6.G4.E9; binder = detection Ab
[23] = biological target: T3, recombinant purified FRα (ECL assay …); test: ECL sandwich on FRα, signal to background; capture 1D2.G8.G10; binder = detection Ab
[24] = biological target: T3, recombinant purified FRα (ECL assay …); test: ECL sandwich on FRα, signal to background; capture 1C6.E12.G8; binder = detection Ab
[25] = biological target: T3, recombinant purified FRα (ECL assay …); test: ECL sandwich, FRα calibrator; capture 1C6.E12.G8; binder = detection Ab
[26] = biological target: T3, recombinant purified FRα (ECL assay …); test: ECL sandwich on FRα, signal to background; capture 19D2.G9; binder = detection Ab
[27] = biological target: T3, recombinant purified FRα (ECL assay …); test: ECL sandwich, FRα calibrator; capture 24H8.F3; binder = detection Ab
[28] = biological target: T3, recombinant purified FRα (ECL assay …); test: ECL sandwich, FRα calibrator; capture 5C12.H8; binder = detection Ab

T1 sequence (P14207 other isoform, or with tags, fused parts or gaps limits assumed): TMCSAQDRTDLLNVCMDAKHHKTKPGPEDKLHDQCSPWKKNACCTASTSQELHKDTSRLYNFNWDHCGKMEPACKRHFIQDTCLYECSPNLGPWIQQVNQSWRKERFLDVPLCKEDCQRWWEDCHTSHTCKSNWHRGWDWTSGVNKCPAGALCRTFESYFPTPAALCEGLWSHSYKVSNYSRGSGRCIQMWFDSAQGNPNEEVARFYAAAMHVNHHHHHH

Row | Binder | binding result [1] | binding result [2] | Average of S/B [3] | Average of S/B [4] | Average of S/B [5] | Average of S/B [6] | Specific signal at 500 pg/mL [7] | Specific signal at 500 pg/mL [8] | Average of S/B [9] | Average of S/B [10] | Specific signal at 500 pg/mL [11] | Average of S/B [12] | Specific signal at 500 pg/mL [13] | Specific signal at 500 pg/mL [14] | Specific signal at 500 pg/mL [15] | Average of S/B [16] | Specific signal at 500 pg/mL [17] | Average of S/B [18] | Specific signal at 500 pg/mL [19] | Specific signal at 500 pg/mL [20] | other results
1 | Monoclonal antibody 30G6.G6.G4.E9 (antibody, mouse IgG1, V domains shown, Murine IgG1 kappa from hybridoma; also called ATCC PTA-123096) VH: GPGLVAPSQSLSITCTVSGFSLTSYGVHWVRQPPGKGLEWLGVIWAGGITNYNSALMSRLSISKDNSKSQVFLKMNSLQTDDTAMYYCARIYYDYDAWFAYWGQGTLVTVSA VL: not shown | no binding | no binding |  |  |  |  |  |  |  |  |  |  |  |  |  |  |  |  |  |  | 
2 | Monoclonal antibody 19D4.B7 (antibody, mouse IgG2a, V domains shown, SULFO-TAG conjugated when used as detection antibody in the ECL assay; also called ATCC PTA-11884) VH: GARELVKPGASVKLSCTASGFNIKHPYMHWVKQRPDQGLEWIGRIDPANGNTKYDPKFQGKATITADTSSNTAYLQLSSLTSEDTAVYYCGREEVADYTMDYWGQGTSVTVSS VL: PASLAVSLGQRATISCRASESVDTYGNNFIHWYQQKPGQPPKLLIYLASNLESGVPARFSGSGSRTDFTLTIDPVEADDAATYYCQQNNGDPWTFGGGTKLEIKR |  |  | 34 | 405 | 207 | 1 | 1260 | 87 | 17 | 17 | 65500 | 5 | 4960 | 1220 | 1970 | 1 | 2630 | 361 | 58700 | 49100 | Average of S/B [21]: 82; Specific signal at 500 pg/mL [22]: 81; Average of S/B [23]: 29; Average of S/B [24]: 28; Specific signal at 500 pg/mL [25]: 2020; Average of S/B [26]: 560; Specific signal at 500 pg/mL [27]: 19100; Specific signal at 500 pg/mL [28]: 320
3 | Monoclonal antibody 26A9.C4 (antibody, mouse IgG1, V domains shown, Murine IgG1 kappa from hybridoma; also called ATCC PTA-123092) VH: SGARELVKPGASVKLSCKTSGFTFSSSFISWLKQKPGQSLEWIAWIYGGNGGTSYNQNFTGKAQLTVDTSSSTAYMQFSSLTTEDSAVYYCASETYGNYWYFDVWGAGTTVTVSS VL: QSPASLSASVGDTVTITCRASGNIHNYLAWYQQKQGKSPQLLVYNAKTLADGVPSRFSGSGSGTQYSLKINSLQPEDFGNYYCQHFWSTPYTFGGGTKLEIK | no binding | no binding | 1 | 1 | 1 | 114 | 61 | 16500 | 1 | 1 | 79 | 1 | 361 | 62 | 64 | 250 | 79 | 1 | 62 | 59 | Average of S/B [21]: 6; Specific signal at 500 pg/mL [22]: 6710; Average of S/B [23]: 1; Average of S/B [24]: 1; Specific signal at 500 pg/mL [25]: 58; Average of S/B [26]: 1; Specific signal at 500 pg/mL [27]: 56; Specific signal at 500 pg/mL [28]: 68
4 | Monoclonal antibody 2F11.F8 (antibody, mouse IgG1, V domains shown, Murine IgG1 kappa from hybridoma; also called ATCC PTA-123098 (so in the source)) VH: ESGPGLVKPSQSLSLTCSVTGYSITSGYYWIWIRQFPGNKLEWMGYINYDGSNNYNPSLKNRISITRDTSKNQFFLKLNSVTTEDTATYYCARGNYYAMDYWGQGTSVTVSS VL: not shown | no binding | no binding | 1 | 1 | 1 | 81 | 179 | 26500 | 1 | 1 | 71 | 1 | 1180 | 73 | 60 | 338 | 69 | 1 | 65 | 59 | Average of S/B [21]: 23; Specific signal at 500 pg/mL [22]: 6790; Average of S/B [23]: 1; Average of S/B [24]: 1; Specific signal at 500 pg/mL [25]: 56; Average of S/B [26]: 1; Specific signal at 500 pg/mL [27]: 54; Specific signal at 500 pg/mL [28]: 53
